Values quoted from earlier work, collected in PMC3471675.
Where two headings read alike, the source gives them in different places.

How the values were obtained:
IL-2Rβ (Homo sapiens) [1] = target: IL-2Rβ (Homo sapiens) (UniProt P14784)
IL-2Rβ (Homo sapiens) [2] = target: IL-2Rβ (Homo sapiens) (UniProt P14784); remark: listed apart in the source
IL-4Rα (Homo sapiens) = IL-4Rα (Homo sapiens) (UniProt P24394)
IL-7Rα (Homo sapiens) [3] = target: IL-7Rα (Homo sapiens) (UniProt P16871)
γc (Homo sapiens) = γc (Homo sapiens) (UniProt P31785)
Chain of UniProt P31785 (P31785 23-262): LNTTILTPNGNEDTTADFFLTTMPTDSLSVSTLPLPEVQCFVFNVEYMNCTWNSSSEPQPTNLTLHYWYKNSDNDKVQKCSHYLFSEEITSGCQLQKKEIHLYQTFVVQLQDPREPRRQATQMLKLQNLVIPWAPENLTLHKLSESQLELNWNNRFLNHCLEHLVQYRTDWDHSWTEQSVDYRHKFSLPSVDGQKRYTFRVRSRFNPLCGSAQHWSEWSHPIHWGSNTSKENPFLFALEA

IL-7Rα (Homo sapiens) [4] = target: IL-7Rα (Homo sapiens) (UniProt P16871); remark: listed apart in the source
IL-21Rα (Homo sapiens) = IL-21Rα (Homo sapiens) (UniProt Q9HBE5)
Chain of UniProt Q9HBE5 (Q9HBE5 20-232): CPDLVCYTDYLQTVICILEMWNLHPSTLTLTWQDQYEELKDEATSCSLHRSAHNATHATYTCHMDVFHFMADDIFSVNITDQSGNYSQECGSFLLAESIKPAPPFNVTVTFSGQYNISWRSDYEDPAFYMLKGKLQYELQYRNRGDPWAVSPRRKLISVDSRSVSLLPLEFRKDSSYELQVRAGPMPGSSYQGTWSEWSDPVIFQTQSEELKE

Chain of UniProt P24394 (P24394 26-232): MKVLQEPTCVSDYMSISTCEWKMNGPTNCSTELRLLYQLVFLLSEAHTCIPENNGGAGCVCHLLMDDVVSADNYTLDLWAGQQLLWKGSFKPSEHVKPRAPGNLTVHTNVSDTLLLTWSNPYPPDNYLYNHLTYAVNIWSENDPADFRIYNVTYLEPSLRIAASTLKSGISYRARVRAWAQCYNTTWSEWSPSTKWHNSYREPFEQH

IL-2 (from UniProt P60568)
Kd (IL-2Rβ (Homo sapiens) [1]): 530 nM

IL-2Rβ (from UniProt P14784)
Kd (IL-2Rβ (Homo sapiens) [2]): 3000 nM

IL-4 (from UniProt P05112)
Kd (IL-4Rα (Homo sapiens)): 0.15 nM

IL-7 (from UniProt P13232)
Kd (IL-7Rα (Homo sapiens) [3]): 59 nM

IL-7Rα (from UniProt P16871)
Kd (γc (Homo sapiens)): 3000 nM | Kd (IL-7Rα (Homo sapiens) [4]): 610000 nM

IL-21 (from UniProt Q9HBE4)
Kd (IL-21Rα (Homo sapiens)): 0.07 nM
